{"source": "patent US20150376243A1", "about": "“Use of AXMI184 for the Control of Rootworm Insects” (ATHENIX CORP., priority 2013, published 2015)", "molecules": {"B1": {"name": "AXMI184: Pesticidal protein SEQ ID NO:3 from Bacillus thuringiensis strain ATX14775; expressed in maize from optimized gene optAxmi184 (SEQ ID NO:2) (protein, listed as Bacillus thuringiensis)", "chain": "MNMNKNNTKLSARALPSFIDYFNGIYGFATGIKDIMNMIFKTDTGGDLTLDEILKNQQLLNDISGKLDGVNGSLNDLIAQGNLNTELSKEILKIANEQNQVLNDVNNKLDAINTMLHVYLPKITSMLSDVMKPNYALSMQIEYLSRQLQEISDKLDIINVNVLINSTLTEITPAYQWIKYVNEKFEELTFATETTLKVKNDSASADILDELTELTELAKSVTKNDVDGFEFYLNTFHDVMVGNNLFGRSTLKTASELIAKENVKTSGSEVGNVYNFLVVLTALQAKAFLTLTTCRKLLGLADIDYTSIMNEHLNKEKEEFRVNILPILSNTFSNPNYAKVKGSDEDAKMIVEAKPGHALVGFEISNDSMTVLKVYEAKLKQNYQVDKDSLSEVIYGDMDKLLCPDQSEKIYYTNNIVFPNEYVITKIDFTKKMKTLRYEVTANSYDSSTGEIDLNKKKVESSKAEYRTLSANNDGVYMPLGVISETFLTPINGFGLQADENSRLITLTCKSYLRELLLATDLSNKETKLIVPPNSFISNIVENGSIEEGHLEPWKANNKNAYVDHTGGVNGTKALYVHEDGGVSQFMGDKLKPKTEYVIQYTVKGKPSIHLKDENTGYILYEDTNNDLEDFQTITKRFTTGTDLMRVYLILKSQSGHEAWGDNFTILEIKPAEALVSPELINPNSWITTQGASISGDKLFISLGTNGTFRQNLSLNSYSTYSISFTASGPFNVTVRNSREVLYERNNLMSSTSHISGEFKTESNNTGLYVELSRRSGGAGHISFENISIK"}}, "key": {"western corn rootworm": {"system": "western corn rootworm", "experiment": "Field trial of T1 maize plants, corn rootworm root injury (CRWNIS)", "assay_type": "in vivo, Diabrotica virgifera", "conditions": "two locations in Iowa; 750 non-diapausing western corn rootworm eggs per plant; scale 0.00 no injury to 3.00 three entire nodes pruned", "protocol": "T1 plants expressing optAxmi184 were tested at two locations in Iowa. Each experimental unit consisted of a one-row plot of maize measuring approximately 15 feet. Plots were arranged using a randomized complete block design with four replications. Efficacy against western corn rootworm was determined by evaluating up to eight maize roots per plot. Inbreds B110 and B116, a CRW-susceptible commercial hybrid, and two CRW control standards: B110 with a standard granular insecticide (FORCE® 3G), and B110 with an insecticidal seed treatment (PONCHO® 1250) were used as controls.\nFields were prepared for this study using cultural practices similar to those used in commercial maize fields in Iowa. Plants not containing transgenic events for CRW control were identified and excluded from the study using an application of 16 oz/A of glyphosate when plants were at the V1 leaf stage. Five to ten days later, the number of positive and negative plants in each plot was recorded. Negative plants were then removed and the remaining positive plants were thinned to 8 plants per row. All plants were then manually infested with non-diapausing western corn rootworm eggs. The eggs were suspended in a dilute agar solution and calibrated to deliver 750 eggs per plant for all plots.\nRoots were dug, washed and evaluated for CRW injury after a period of larval feeding. […]"}, "[1]": {"system": "western corn rootworm (Diabrotica virgifera)", "experiment": "Root damage in T0 transgenic maize in root-trainer containers infested with western corn rootworm eggs (CRWNIS)", "assay_type": "in vivo", "conditions": "T0 maize plants containing optAxmi184 and expressing detectable AXMI184; ~125 non-diapausing eggs per plant; assessed after fifteen days; versus control plants infested in the same manner; FIG. 1", "description": "Transgenic maize plants transformed with an optimized version of Axmi184 (optAxmi184, set forth herein as SEQ ID NO:2) were obtained by Agrobacterium-mediated transformation. Plants shown by PCR analysis to contain the appropriate Axmi184 construct were selected, and transferred to root trainer containers.\nT0 plants containing optAxmi184 were transplanted to root-trainer containers and propagated for approximately three weeks. Individual plants were then each infested with ˜125 non-diapausing western corn rootworm (Diabrotica virgifera) eggs. Plants were analyzed for expression of AXMI184 protein by Western blot analysis using an anti-AXMI184 antibody. Plants expressing detectable amounts of AXMI184 were selected for analysis. After fifteen days, the amount of root damage in each plant was assessed using the Node Injury Scale (CRWNIS) (Oleson et al. 2005. J. Econ Entomol. 98(1): 1-8), where 0.00 is no injury and 3.00 is all roots pruned to within 1.5 inches of the stalk on three entire nodes."}}}
{"molecule": "B1", "values": [{"measurement": "Average CRWNIS", "setting": "western corn rootworm", "result": 0.12}, {"measurement": "amount of root damage, Node Injury Scale (CRWNIS)", "setting": "[1]", "result": "lower root damage than control plants"}]}
